The chains are these.
T1: full-length human OX40 expressed on HuT78 cells (HuT78/OX40) (human, UniProt P43489 29-277)
T1 sequence: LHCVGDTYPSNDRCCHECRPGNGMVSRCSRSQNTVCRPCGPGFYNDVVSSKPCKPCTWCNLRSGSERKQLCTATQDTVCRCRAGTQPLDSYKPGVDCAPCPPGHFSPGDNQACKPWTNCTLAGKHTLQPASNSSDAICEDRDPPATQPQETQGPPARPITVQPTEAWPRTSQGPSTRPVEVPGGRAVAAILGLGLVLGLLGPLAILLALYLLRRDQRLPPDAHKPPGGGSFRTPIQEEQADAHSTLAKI

T2: recombinant OX40 protein with a His tag (Cat: 10481-H08H, Sino Biological) (UniProt P43489 29-216)
T2 construct: Bought protein; also called OX40-His (bought); not shown: His tag
T2 sequence (looked up): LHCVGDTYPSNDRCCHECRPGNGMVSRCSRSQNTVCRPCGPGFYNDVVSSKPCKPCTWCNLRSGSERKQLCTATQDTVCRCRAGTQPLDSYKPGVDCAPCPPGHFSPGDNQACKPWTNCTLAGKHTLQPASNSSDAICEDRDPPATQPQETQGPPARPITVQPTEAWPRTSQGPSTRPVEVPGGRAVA

B1: 445-2 (antibody, V domains shown)
VH: QVQLVQSGAEVKKPGSSVKVSCKASGYKFTSYIIHWVRQAPGQGLEWMGYINPYNEGTRYAQKFQGRVTLTADKSTSTAYMELSSLRSEDTAVYYCARGYYGSSYAMDYWGQGTTVTVSS
VL: DIQMTQSPSSLSASVGDRVTITCSASQGISNYLNWYQQKPGKAIKLLIYDASTLYSGVPSRFSGSGSGTDFTLTISSLQPEDFATYYCQQYSKLPYTFGGGTKVEIK
B2: 445-3 IgG4 (antibody, V domains shown)
VH: B1 VH with A61N
VL: B1 VL with S24R, G41D, K42G
B3: 445-1 (antibody, V domains shown)
VH: B1 VH with E56D, A61N, A72S
VL: B1 VL with A51T, F71Y
B4: ch445 (antibody, V domains shown)
VH: EVQLQQSGPELVKPGASVKMSCKASGYKFTSYIIHWVKQKPGQGLEWIGYINPYNDGTRYNEKFKGKATLTSDKSSSTAYMEYSSLTSEDSAVYYCARGYYGSSYAMDYWGQGTSVTVSS
VL: DIQMTQTTSSLSASLGDRVTISCSASQGISNYLNWYQQKPDGTIKLLIYDTSTLYSGVPSRFSGSGSGTDYFLTISNLEPEDIATYYCQQYSKLPYTFGGGTKLEKK
notes: also called Mu445 variable domains fused to human IgG1wt/kappa constant regions
B5: 445-2(M48I)-1 (antibody, human IgG1, V domains shown)
VH: B1 VH with M48I, E56D, A61N, A72S
VL: B1 VL with A51T, F71Y
B6: 445-1-2(S24G) (antibody, human IgG1, V domains shown)
VH: B1 VH with E56D, A61N, A72S
VL: B1 VL with S24G, A51T, F71Y
B7: 445-1-2(S10T/E81D/D70E) (antibody, human IgG1, V domains shown)
VH: B1 VH with E56D, A61N, A72S
VL: B1 VL with S10T, A51T, D70E, F71Y, E81D
B8: 445-3(T30S)-3(S24R) (antibody, V domains shown)
VH: B1 VH with T30S
VL: B1 VL with S24R
B9: 445-3(Q62E/Q65K)-3(S24R) (antibody, V domains shown)
VH: B1 VH with Q62E, Q65K
VL: B1 VL with S24R
B10: 445-3(Q62E)-3(S24R) (antibody, V domains shown)
VH: B1 VH with Q62E
VL: B1 VL with S24R
B11: 445-3-3(G41D-K42G-S24R-K93R) (antibody, V domains shown)
VH: B1 VH with A61N
VL: B1 VL with S24R, G41D, K42G, K93R
B12: 445-3(A61N-K28R)-3 (antibody, V domains shown)
VH: B1 VH with K28R, A61N
VL: B1 VL with S24R, G41D, K42G
B13: 445-3(A61N-K63R)-3 (antibody, V domains shown)
VH: B1 VH with A61N, K63R
VL: B1 VL with S24R, G41D, K42G

Substitutions are numbered along the chain they refer to. In names and notes the source's numbering stands.

We go through 13 molecules from patent publication US20230011916A1 (BEIGENE, published 2023).

The first assay addresses T1, full-length human OX40 expressed on …. Description: flow cytometry on live HuT78/OX40 cells; Mean. On the procedure:
(§1) To evaluate the binding activity of anti-OX40 antibodies to bind OX40 expressed on the surface of live cells, HuT78 cells were transfected with human OX40 as described in Example 1 to create an OX40 expressing line. Live HuT78/OX40 cells were seeded in 96-well plate and were incubated with a serial dilution of various anti-OX40 antibodies. Goat anti-Human IgG-FITC (Cat: A0556, Beyotime) was used as a secondary antibody to detect antibody binding to the cell surface. EC₅₀ values for dose-dependent binding to human OX40 were determined by fitting the dose-response data to the four-parameter logistic model with GraphPad Prism.
A general note: In flow cytometry, cells or beads pass a laser one at a time.
Regarding B1, the 50% effective concentration (EC50) – broadly, the midpoint of the concentration-response curve – turned out to be 0.343 µg/mL and the “Top(MFI)” value worked out at 620 MFI.

For the molecule B2, the response was half-maximal at 0.263 µg/mL (EC50) and the “Top(MFI)” value came out at 892 MFI.

Regarding B3, the concentration for a half-maximal effect (EC50) turned out to be 0.285 µg/mL and the “Top(MFI)” value came out at 525 MFI.

With B4, the EC50 amounted to 0.299 µg/mL and the “Top(MFI)” value turned out to be 725 MFI.

The next assay has the same target. The assay is described as follows: flow cytometry on live HuT78/OX40 cells; Test 1. The procedure: as §1
B1 displayed a concentration giving a half-maximal response (EC50) of 0.323 µg/mL.

With B2, the half-maximal effective concentration (EC50) turned out to be 0.263 µg/mL.

B3 yielded an EC50 of 0.293 µg/mL.

Turning to B4, the half-maximal effective concentration (EC50) stood at 0.321 µg/mL. The EC50 values of the last two molecules are within 1.5-fold of each other.

The next assay has the same target. The assay is described as follows: flow cytometry on live HuT78/OX40 cells; Test 2. The procedure:
as §1
In the case of B1, the EC50 was 0.363 µg/mL.

In the case of B3, the EC50 came out at 0.278 µg/mL.

In the case of B4, a half-maximal effect (EC50) was put at 0.277 µg/mL.

The next assay has as its target T2, recombinant OX40 protein with a His tag …. The assay is described as follows: SPR, BIAcore T-200; antibody captured by anti-human IgG, OX40-His flowed; Mean. The source says: (§2) The anti-OX40 antibodies were characterized for their binding kinetics and affinity by SPR assays using BIAcore™ T-200 (GE Life Sciences). Briefly, anti-human IgG antibody was immobilized on an activated CM5 biosensorchip (Cat: BR100530, GE Life Sciences). An antibody with human IgG Fc region was flowed over the chip surface and captured by anti-human IgG antibody. Then a serial dilution of recombinant OX40 protein with a His tag (Cat: 10481-H08H, Sino Biological) was flowed over the chip surface and changes in surface plasmon resonance signals were analyzed to calculate the association rates (ka) and dissociation rates (kd) by using the one-to-one Langmuir binding model (BIA Evaluation Software, GE Life Sciences). The equilibrium dissociation constant (KD) was calculated as the ratio kd/ka.
In general terms: In SPR one partner is held on a chip, and binding of the other changes the refractive index at the surface.
B1: the Ka came to 7.5e+07 M⁻¹ and the Kd (commonly a measure of binding affinity in units of concentration) stood at 13.5 nM.

Regarding B2, the Ka was 1e+08 M⁻¹ and the equilibrium dissociation constant (Kd) is 10 nM.

For the molecule B3, the Ka is 5.9e+07 M⁻¹ and the Kd was determined as 17.1 nM.

Take B4: the Ka is 1.41e+08 M⁻¹ and the Kd was 7.28 nM.

The target in the next assay is T1, full-length human OX40 expressed on …. Description: FACS; cells not named on the sheet, HuT78/OX40 cells as in Example 5.
With B5, the EC50 was 0.353 µg/mL and the “Top(MFI)” value amounted to 480 MFI.

For B6, it took 0.307 µg/mL to reach a half-maximal effect (EC50) and the “Top(MFI)” value is 470 MFI.

B3: the concentration giving a half-maximal response (EC50) was 0.336 µg/mL and the “Top(MFI)” value came out at 500 MFI.

B7: the response was half-maximal at 0.28 µg/mL (EC50) and the “Top(MFI)” value was determined as 510 MFI.

A further assay has the same target. The assay is described as above. The source holds these as a separate data set.
In the case of B1, the midpoint of the response, the EC50, lay at 0.397 µg/mL and the “Top(MFI)” value came out at 760 MFI.

For the molecule B8, the EC50 amounted to 0.405 µg/mL and the “Top(MFI)” value was 800 MFI.

For the molecule B9, the midpoint of the response, the EC50, lay at 0.318 µg/mL and the “Top(MFI)” value was determined as 790 MFI.

Turning to B10, the EC50 worked out at 0.363 µg/mL and the “Top(MFI)” value came to 760 MFI.

Regarding B11, the EC50 is 0.337 µg/mL and the “Top(MFI)” value came to 1050 MFI.

B12: a half-maximal effect (EC50) was put at 0.369 µg/mL and the “Top(MFI)” value is 1080 MFI.

Regarding B13, a half-maximal effect (EC50) was put at 0.483 µg/mL and the “Top(MFI)” value was 1100 MFI.

The target in the next assay is T2, recombinant OX40 protein with a His tag …. The assay is described as follows: SPR, BIAcore T-200; antibody captured by anti-human IgG, OX40-His flowed; Test 1.
Description: as §2
Turning to B1, the Ka was 7.1e+07 M⁻¹; the Kd was 14.2 nM; the koff (as a rule, a measure of how fast the partners let go of each other) came out at 0.0039 s⁻¹; the on-rate (kon) (commonly the second-order rate constant of association) stood at 276000 M⁻¹ s⁻¹.

B2: the Ka was determined as 1e+08 M⁻¹ and the dissociation constant Kd amounted to 10 nM.

As to B3, the Ka amounted to 5.6e+07 M⁻¹, the equilibrium dissociation constant (Kd) was determined as 17.8 nM, the koff came to 0.00277 s⁻¹ and the on-rate (kon) is 156000 M⁻¹ s⁻¹.

In the case of B4, the Ka worked out at 1.22e+08 M⁻¹, the dissociation constant (Kd) worked out at 8.26 nM, the koff was determined as 0.00143 s⁻¹ and the association rate constant (kon) was 174000 M⁻¹ s⁻¹.

For a further assay the target is unchanged. Description: SPR, BIAcore T-200; antibody captured by anti-human IgG, OX40-His flowed; Test 2.
Description: as §2
With B1, the Ka is 7.8e+07 M⁻¹, the equilibrium dissociation constant (Kd) was 12.8 nM, the koff was determined as 0.00264 s⁻¹ and the kon was determined as 206000 M⁻¹ s⁻¹.

B3: the Ka was found to be 6.1e+07 M⁻¹, the Kd stood at 16.4 nM, the dissociation rate constant (koff) came to 0.00389 s⁻¹ and the kon worked out at 237000 M⁻¹ s⁻¹.

As to B4, the Ka was 1.59e+08 M⁻¹, the equilibrium dissociation constant (Kd) came to 6.3 nM, the off-rate (koff) came to 0.00167 s⁻¹ and the kon is 265000 M⁻¹ s⁻¹.

For a further assay the target is unchanged. The assay is described as follows: Biacore (SPR); antigen not named on the sheet, OX40-His as in Example 4.
Turning to B5, the dissociation constant Kd came to 15.5 nM, the koff worked out at 0.00356 s⁻¹ and the association rate constant (kon) amounted to 230000 M⁻¹ s⁻¹.

As to B6, the dissociation constant (Kd) came out at 16.2 nM, the off-rate constant (koff) worked out at 0.0036 s⁻¹ and the kon turned out to be 222000 M⁻¹ s⁻¹.

With B7, the dissociation constant (Kd) stood at 14.9 nM, the off-rate (koff) was found to be 0.0034 s⁻¹ and the kon turned out to be 228000 M⁻¹ s⁻¹.

A further assay has the same target. Described as above. The source holds these as a separate data set.
As to B8, the equilibrium dissociation constant (Kd) was found to be 13.1 nM, the dissociation rate constant (koff) is 0.00381 s⁻¹ and the on-rate constant (kon) turned out to be 291000 M⁻¹ s⁻¹.

Turning to B9, the dissociation constant (Kd) is 12.4 nM, the koff was 0.00232 s⁻¹ and the on-rate (kon) turned out to be 187000 M⁻¹ s⁻¹.

As to B10, the equilibrium dissociation constant (Kd) came out at 11.7 nM, the koff is 0.00227 s⁻¹ and the on-rate (kon) turned out to be 194000 M⁻¹ s⁻¹.

As to B11, the Kd amounted to 7.9 nM, the koff turned out to be 0.00168 s⁻¹ and the kon came out at 212000 M⁻¹ s⁻¹.

For the molecule B12, the Kd was found to be 7.35 nM, the koff was 0.00115 s⁻¹ and the kon came to 157000 M⁻¹ s⁻¹.

With B13, the equilibrium dissociation constant (Kd) was 9.65 nM, the koff turned out to be 0.00155 s⁻¹ and the kon was determined as 161000 M⁻¹ s⁻¹.
